Where a chain is given by its changes, count along the chain named. Numbers in names are those of the source.
B1: N151R: PYR1 mutant (protein, UniProt O49686 1-191, looked up, variant N151R)
Abscisic acid receptor PYR1: MPSELTPEERSELKNSIAEFHTYQLDPGSCSSLHAQRIHAPPELVWSIVRRFDKPQTYKHFIKSCSVEQNFEMRVGCTRDVIVISGLPANTSTERLDILDDERRVTGFSIIGGEHRLTNYKSVTTVHRFEKENRIWTVVLESYVVDMPEGRSEDDTRMFADTVVKLNLQKLATVAEAMARNSGDGSGSQVT
B2: N151V: PYR1 mutant (protein, UniProt O49686 1-191, looked up, variant N151V)
Abscisic acid receptor PYR1: B1 Abscisic acid receptor PYR1 with R151V
B3: N151W: PYR1 mutant (protein, UniProt O49686 1-191, looked up, variant N151W)
Abscisic acid receptor PYR1: B1 Abscisic acid receptor PYR1 with R151W
B4: N151C: PYR1 mutant (protein, UniProt O49686 1-191, looked up, variant N151C)
Abscisic acid receptor PYR1: B1 Abscisic acid receptor PYR1 with R151C
B5: N151Y: PYR1 mutant (protein, UniProt O49686 1-191, looked up, variant N151Y)
Abscisic acid receptor PYR1: B1 Abscisic acid receptor PYR1 with R151Y
B6: N151D: PYR1 mutant (protein, UniProt O49686 1-191, looked up, variant N151D)
Abscisic acid receptor PYR1: B1 Abscisic acid receptor PYR1 with R151D
B7: N151E: PYR1 mutant (protein, UniProt O49686 1-191, looked up, variant N151E)
Abscisic acid receptor PYR1: B1 Abscisic acid receptor PYR1 with R151E
B8: N151F: PYR1 mutant (protein, UniProt O49686 1-191, looked up, variant N151F)
Abscisic acid receptor PYR1: B1 Abscisic acid receptor PYR1 with R151F
B9: N151G: PYR1 mutant (protein, UniProt O49686 1-191, looked up, variant N151G)
Abscisic acid receptor PYR1: B1 Abscisic acid receptor PYR1 with R151G
B10: N151H: PYR1 mutant (protein, UniProt O49686 1-191, looked up, variant N151H)
Abscisic acid receptor PYR1: B1 Abscisic acid receptor PYR1 with R151H
B11: N151I: PYR1 mutant (protein, UniProt O49686 1-191, looked up, variant N151I)
Abscisic acid receptor PYR1: B1 Abscisic acid receptor PYR1 with R151I
B12: N151K: PYR1 mutant (protein, UniProt O49686 1-191, looked up, variant N151K)
Abscisic acid receptor PYR1: B1 Abscisic acid receptor PYR1 with R151K
B13: D155L: PYR1 mutant (protein, UniProt O49686 1-191, looked up, variant D155L)
Abscisic acid receptor PYR1: B1 Abscisic acid receptor PYR1 with R151N, D155L
B14: D155M: PYR1 mutant (protein, UniProt O49686 1-191, looked up, variant D155M)
Abscisic acid receptor PYR1: B1 Abscisic acid receptor PYR1 with R151N, D155M
B15: D155P: PYR1 mutant (protein, UniProt O49686 1-191, looked up, variant D155P)
Abscisic acid receptor PYR1: B1 Abscisic acid receptor PYR1 with R151N, D155P
B16: D155R: PYR1 mutant (protein, UniProt O49686 1-191, looked up, variant D155R)
Abscisic acid receptor PYR1: B1 Abscisic acid receptor PYR1 with R151N, D155R
B17: D155V: PYR1 mutant (protein, UniProt O49686 1-191, looked up, variant D155V)
Abscisic acid receptor PYR1: B1 Abscisic acid receptor PYR1 with R151N, D155V
B18: D155W: PYR1 mutant (protein, UniProt O49686 1-191, looked up, variant D155W)
Abscisic acid receptor PYR1: B1 Abscisic acid receptor PYR1 with R151N, D155W
B19: D155C: PYR1 mutant (protein, UniProt O49686 1-191, looked up, variant D155C)
Abscisic acid receptor PYR1: B1 Abscisic acid receptor PYR1 with R151N, D155C
B20: D155Y: PYR1 mutant (protein, UniProt O49686 1-191, looked up, variant D155Y)
Abscisic acid receptor PYR1: B1 Abscisic acid receptor PYR1 with R151N, D155Y
B21: D155F: PYR1 mutant (protein, UniProt O49686 1-191, looked up, variant D155F)
Abscisic acid receptor PYR1: B1 Abscisic acid receptor PYR1 with R151N, D155F
B22: D155G: PYR1 mutant (protein, UniProt O49686 1-191, looked up, variant D155G)
Abscisic acid receptor PYR1: B1 Abscisic acid receptor PYR1 with R151N, D155G
B23: D155I: PYR1 mutant (protein, UniProt O49686 1-191, looked up, variant D155I)
Abscisic acid receptor PYR1: B1 Abscisic acid receptor PYR1 with R151N, D155I
B24: D155K: PYR1 mutant (protein, UniProt O49686 1-191, looked up, variant D155K)
Abscisic acid receptor PYR1: B1 Abscisic acid receptor PYR1 with R151N, D155K
B25: T156L: PYR1 mutant (protein, UniProt O49686 1-191, looked up, variant T156L)
Abscisic acid receptor PYR1: B1 Abscisic acid receptor PYR1 with R151N, T156L
B26: T156M: PYR1 mutant (protein, UniProt O49686 1-191, looked up, variant T156M)
Abscisic acid receptor PYR1: B1 Abscisic acid receptor PYR1 with R151N, T156M
B27: T156N: PYR1 mutant (protein, UniProt O49686 1-191, looked up, variant T156N)
Abscisic acid receptor PYR1: B1 Abscisic acid receptor PYR1 with R151N, T156N
B28: T156P: PYR1 mutant (protein, listed as Arabidopsis thaliana)
chain: B1 Abscisic acid receptor PYR1 with R151N, T156P
B29: T156Q: PYR1 mutant (protein, UniProt O49686 1-191, looked up, variant T156Q)
Abscisic acid receptor PYR1: B1 Abscisic acid receptor PYR1 with R151N, T156Q
B30: T156R: PYR1 mutant (protein, UniProt O49686 1-191, looked up, variant T156R)
Abscisic acid receptor PYR1: B1 Abscisic acid receptor PYR1 with R151N, T156R
B31: T156W: PYR1 mutant (protein, UniProt O49686 1-191, looked up, variant T156W)
Abscisic acid receptor PYR1: B1 Abscisic acid receptor PYR1 with R151N, T156W
B32: T156Y: PYR1 mutant (protein, UniProt O49686 1-191, looked up, variant T156Y)
Abscisic acid receptor PYR1: B1 Abscisic acid receptor PYR1 with R151N, T156Y
B33: T156D: PYR1 mutant (protein, UniProt O49686 1-191, looked up, variant T156D)
Abscisic acid receptor PYR1: B1 Abscisic acid receptor PYR1 with R151N, T156D
B34: T156E: PYR1 mutant (protein, UniProt O49686 1-191, looked up, variant T156E)
Abscisic acid receptor PYR1: B1 Abscisic acid receptor PYR1 with R151N, T156E
B35: T156F: PYR1 mutant (protein, UniProt O49686 1-191, looked up, variant T156F)
Abscisic acid receptor PYR1: B1 Abscisic acid receptor PYR1 with R151N, T156F
B36: T156G: PYR1 mutant (protein, UniProt O49686 1-191, looked up, variant T156G)
Abscisic acid receptor PYR1: B1 Abscisic acid receptor PYR1 with R151N, T156G
B37: T156H: PYR1 mutant (protein, UniProt O49686 1-191, looked up, variant T156H)
Abscisic acid receptor PYR1: B1 Abscisic acid receptor PYR1 with R151N, T156H
B38: T156I: PYR1 mutant (protein, UniProt O49686 1-191, looked up, variant T156I)
Abscisic acid receptor PYR1: B1 Abscisic acid receptor PYR1 with R151N, T156I
B39: T156K: PYR1 mutant (protein, UniProt O49686 1-191, looked up, variant T156K)
Abscisic acid receptor PYR1: B1 Abscisic acid receptor PYR1 with R151N, T156K
B40: M158P: PYR1 mutant (protein, UniProt O49686 1-191, looked up, variant M158P)
Abscisic acid receptor PYR1: B1 Abscisic acid receptor PYR1 with R151N, M158P
B41: F159N: PYR1 mutant (protein, UniProt O49686 1-191, looked up, variant F159N)
Abscisic acid receptor PYR1: B1 Abscisic acid receptor PYR1 with R151N, F159N
B42: F159P: PYR1 mutant (protein, UniProt O49686 1-191, looked up, variant F159P)
Abscisic acid receptor PYR1: B1 Abscisic acid receptor PYR1 with R151N, F159P
B43: F159Q: PYR1 mutant (protein, UniProt O49686 1-191, looked up, variant F159Q)
Abscisic acid receptor PYR1: B1 Abscisic acid receptor PYR1 with R151N, F159Q
B44: F159R: PYR1 mutant (protein, UniProt O49686 1-191, looked up, variant F159R)
Abscisic acid receptor PYR1: B1 Abscisic acid receptor PYR1 with R151N, F159R
B45: F159S: PYR1 mutant (protein, UniProt O49686 1-191, looked up, variant F159S)
Abscisic acid receptor PYR1: B1 Abscisic acid receptor PYR1 with R151N, F159S

Tested on: HAB1
Assay: Yeast two hybrid of pBD-PYR1 site saturation mutants with pACT-HAB1 on 10 μM ABA, β-galactosidase staining
Type: cell-based, Arabidopsis
Design: key: x: Mutations in PYR1 that disrupt ABA-induced binding to PYR1 to HAB1
Settings: S. cerevisiae Y190, 10 μM ABA; dead = lack of visible staining in comparison to wild type control
Summary of the method: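 S. cerevisiae Y190 co-expressing GAL4-DNA-binding-domain–PYR1 mutants and GAL4-activation-domain–HAB1 were spotted on SD (-Leu, -Trp) agar with 10 μM (+)-ABA for 2 days at 30° C. Colonies were chloroform-lysed and stained for β-galactosidase. Mutants lacking visible staining relative to wild type were scored as non-binding.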

Molecule	Mutations in PYR1 that disrupt ABA-induced binding to PYR1 to HAB1
B1	x
B2	x
B3	x
B4	x
B5	x
B6	x
B7	x
B8	x
B9	x
B10	x
B11	x
B12	x
B13	x
B14	x
B15	x
B16	x
B17	x
B18	x
B19	x
B20	x
B21	x
B22	x
B23	x

Molecule	Mutations in PYR1 that disrupt ABA-induced binding to PYR1 to HAB1
B24	x
B25	x
B26	x
B27	x
B28	x
B29	x
B30	x
B31	x
B32	x
B33	x
B34	x
B35	x
B36	x
B37	x
B38	x
B39	x
B40	x
B41	x
B42	x
B43	x
B44	x
B45	x

From patent US10919943B2, “Mutant proteins enabling agrochemical control of plant gene expression” (The Regents of the University of California, priority 2016, dated 2021)
